Entries after “also recorded” stand apart in the source; their conditions may differ.
B1: TGβ2: TGFβ isoform 2 administered as part of a therapeutic composition (protein)
chain: ALDAAYCFRNVQDNCCLRPLYIDFKRDLGWKWIHEPKGYNANFCAGACPYLWSSDTQHTKVLSLYNTINPEASASPCCVSQDLEPLTILYYIGNTPKIEQLSNMIVKSCKCS
B2: Nodal: composition that up-regulates SMAD-signaling (protein, UniProt Q96S42 238-347, looked up)
Nodal homolog: HHLPDRSQLCRKVKFQVDFNLIGWGSWIIYPKQYNAYRCEGECPNPVGEEFHPTNHAYIQSLLKRYQPHRVPSTCCAPVKTKPLSMLYVDNGRVLLDHHKDMIVEECGCL
B3: TGFβ3: recombinant Transforming Growth Factor beta 3 isoform, injected subconjunctivally (protein)
chain: ALDTNYCFRNLEENCCVRPLYIDFRQDLGWKWVHEPKGYYANFCSGPCPYLRSSDTTHSTVLGLYNTLNPEASASPCCVPQDLEPLTILYYVGRTPKVEQLSNMVVKSCKCS

Key:
[1] = Example 2: promotion of re-epithelialization; format: in vivo; conditions: end point: establishment of a biological barrier or Superficial Punctate Keratitis
Excerpt: (§1) Compositions can also be administered in effective amounts to promote re-epithelialization, reduce the occurrence and/or severity of ulcers and preserve nerve function (appropriate signal potentiation) and/or integrity (physical state of the nerve itself). Objective measures for re-epithelialization include, without limitation, slit lamp microscopy with fluorescence staining. Objective measures for reduction and/or severity of ulcers include, without limitation, slit lamp microscopy for surface (ir)regularity. Objective measures for preservation of nerve function include corneal sensitivity measures. Objective measures for preservation of nerve integrity include in vitro confocal microscopy to determine the nerve fiber health (length, diameters and branches.)
(§2) A number of experiments are conducted to further define the role of up-regulation of TGFβ1, TGFβ2, TGFβ3, Serpine 1, fibronectin, lumican, epidermal growth factor ligands, activin and Nodal as well as the down-regulation of sEH/Ephx2 in the promotion of wound healing, promotion of re-epithelialization, reduction of the occurrence and/or severity of ulcers, preservation of nerve function and/or integrity, promotion of eye health and maintenance of vision. In the experiments, each experiment having relevant control conditions, each of the listed compounds is administered as part of a therapeutic composition (including as a direct therapeutic and/or as part of a genetic therapy as described herein).

[2] = Example 2: occurrence and/or severity of ulcers; format: in vivo; conditions: end point: slit lamp microscopy for surface (ir)regularity
Excerpt: as §1, §2

GK rat corneas = assay: Epithelial wound closure in GK rat corneas after subconjunctival recombinant TGFβ3; format: in vivo; conditions: GK rats, 40 ng in 20 μl subconjunctival 4 hours prior to debridement, 5-mm wound, 42 h, vs PBS
Procedure: (§3) FIGS. 6A-6C. Effects of TGFβ3 on epithelial wound closure in GK rat corneas. (FIG. 6A) A total of 40 ng recombinant TGFβ3, with PBS as the control, was injected into subconjunctival space at two sites (10 μl each) of GK rats 4 hours prior to wounding. Corneal epithelial wound of 5-mm diameter was made and allowed to heal for 42 h and then fluorescence stained, and photographed. (FIG. 6B) Changes in the mean of the remaining wound areas in pixels were calculated by Adobe Photoshop software with p value listed, n=5. (FIG. 6C). CECs collected during wounding (Con) and 42 hpw in PBS and TGFβ3 treated corneas were extracted and subjected to Western blotting with listed antibodies; two samples out of 5 from post wounding corneas were shown with actin as the internal control. The anti-TGFβ1-3 antibodies recognized both latent (44, 25, 47 kDa, respectively) and active (15, 12, 15 kDa, respectively) forms, giving two bands in Western blotting. These figures are representatives of 5 corneas per condition from 2 independent experiments; ** p<0.01.
Corneal Epithelial Debridement Wound. […]
Exogenous TGFβ3 accelerates delayed epithelial wound closure in DM corneas. Whether exogenously-added TGFβ3 in DM corneas accelerates delayed epithelial wound closure in GK and STZ B6 mice was assessed next. […]

[3] = system: Smad2/3, TGFβ1, TGFβ2, TGFβ3 in WH CECs; assay: Western blotting of CECs of TGFβ3 treated GK rat corneas; format: in vivo; conditions: GK rats
Procedure: as §3
Determination of Protein Expression and Phosphorylation by Western Blot Analysis. The epithelial cells removed during corneal debridement (the control) and post-wound, but prior to wound closure, were collected from NL and DM rat corneas and lysed with radioimmunoprecipitation assay (RIPA) buffer. Protein concentrations were determined using Micro BCA kits. Levels of various proteins or their phosphorylation were determined using specific antibodies. For each condition, two samples were shown with β-actin levels as the internal controls.
Exogenous TGFβ3 accelerates delayed epithelial wound closure in DM corneas. Whether exogenously-added TGFβ3 in DM corneas accelerates delayed epithelial wound closure in GK and STZ B6 mice was assessed next. […] To assess if exogenously added TGFβ3 affects the isoform expression, antibodies against TGFβ1-3 were used for Western blotting. […] While some elevated active TGFβ3 molecules could be from exogenously added TGFβ3 (15 kDa), the latent form (47 kDa) can only be from endogenous sources, indicating an auto-regulation of TGFβ3 expression in rat corneas.

STZ B6 mouse corneas = assay: Epithelial wound closure in STZ B6 mouse corneas after subconjunctival recombinant TGFβ3; format: in vivo; conditions: STZ B6 mice, 14 ng subconjunctival 4 hours prior to wounding, 2 mm wound, 16 and 24 hpw, vs PBS
Procedure: (§4) FIGS. 7A-7C. Effects of TGFβ3 on epithelial wound closure in B6 and STZ B6 mouse corneas. […] A 2 mm epithelial wound was made and allowed to heal for 16 h in B6 mice and 24 h in STZ B6 mice, and then fluorescence stained, and photographed. 1) NL cornea injected with PBS, 2) NL corneal injected with TGFβ3, 3) DM (STZ) cornea injected with PBS, 4) DM corneal injected with TGFβ3. (FIG. 7B) Changes in the mean of the remaining wound areas in pixels were calculated by Adobe Photoshop software with p value listed, n=5. (FIG. 7C). CECs collected during wounding (first 2 lanes) and 16 hpw (1, 2) or 24 hpw (3, 4) in PBS (1, 3) and TGFβ3 (2, 4) treated corneas were extracted and subjected to realtime-PCR analysis for Serpine 1 expression, N=3, **p<0.01.
Corneal Epithelial Debridement Wound. Anesthetized rats and mice were first demarcated with a trephine in the central cornea (5-mm circular wound for rats and 2 mm for mice) and CECs were removed with a blunt scalpel blade under a dissecting microscope (4; 6; 7). The blade with scraped CECs was immediately immersed into liquid nitrogen and the visible ice was collected into a test tube, placed on dry ice and stored at −80° C. The sample was marked as unwounded (UW). Bacitracin ophthalmic ointment was applied to the cornea after surgery to prevent infection. […]

Serpine 1 = assay: Realtime-PCR for Serpine 1 expression in CECs of TGFβ3 treated mouse corneas; format: in vivo; conditions: NL and DM mice, 16 or 24 hpw
Procedure: as §4
RNA Extraction and Real-time PCR. For RNA isolation, CECs were scraped off of corneas, with 2 corneas pooled into 1 tube as one sample. RNA was extracted from the collected CECs using RNeasy Mini Kit (QIAGEN). cDNA was generated with an oligo(dT) primer (Invitrogen) followed by analysis using real-time PCR with the Power SYBR Green PCR Master Mix (AB Applied Biosystems), based on the expression of β-actin.

[4] = system: corneas of type 1 DM rats and mice and type 2 DM rats; assay: Epithelial wound healing in DM corneas of three rodent models (summary statements); format: in vivo; conditions: exogenous TGFβ3
Excerpt: The described genome-wide cDNA microarrays were used to compare the gene expression profiles of WH versus UW and DM versus NL CECs. […] Without being bound to a single theory, the effects of TGFβs on epithelial wound closure are related to its ability to activate Smad-dependent and -independent pathways, to modulate its own expression, and to mediate target gene expression.
The altered expression of TGFβ3 was also confirmed in cultured human corneas post wound healing, indicating the relevance of the study. […] While the mechanisms underlying hyperglycemia-suppressed wound-induced TGFβ3 expression is unclear, early inhibitory effects of hyperglycemia on TGFβ3 expression, which differs from that of TGFβ1 (42), may exacerbate the suppression of TGFβ3 up-regulation in response to wounding.

adult skin wounds = conditions: failure due to increased angiogenesis in post-surgery skin; cited from earlier work

| Molecule | Treatment Outcome: Promotes re-epithelialization [1] | Treatment Outcome: Reduces occurrence and/or severity of ulcers [2] | further results |
| --- | --- | --- | --- |
| Activin | Promotes | Reduces occurrence | – |
| TGβ1: TGFβ isoform 1 administered as part of a therapeutic composition | Promotes | Reduces occurrence | – |
| B1 | Promotes | Reduces occurrence | – |
| B2 | Promotes | Reduces occurrence | – |
| B3 | Promotes | Reduces occurrence | rate of wound closure (GK rat corneas): substantially increasing; Smad2/3 phosphorylation in WH CECs ([3]; 42 hpw): enhancing; TGFβ3 expression (latent form, endogenous) ([3]; WH CECs): increased; TGFβ1 expression ([3]; WH DM CECs): no effects; levels of TGFβ2 ([3]; all samples): low and unchanged; rate of epithelial closure (STZ B6 mouse corneas): significantly increased; Serpine 1 mRNA levels (Serpine 1): correlated to the levels of TGFβ3 activity; epithelial wound healing in DM corneas [4]: promotes epithelial wound healing; also recorded: partially restores the healing rate; outcome of phase 3 clinical trials as anti-scarring agent (adult skin wounds): considered a failure |

Reference: patent publication US20160310572A1, “COMPOSITIONS AND METHODS TO DIAGNOSE DIABETES AND/OR TO TREAT NEGATIVE EFFECTS OF DIABETES” (WAYNE STATE UNIVERSITY, priority 2013, published 2016)
